# Results as given in paper PMC5458757 (Genes & Development, 2017).
# T1: human SIAH1-SBD (91–282) (human, UniProt Q8IUQ4-1 91-282)
# T1 sequence (looked up): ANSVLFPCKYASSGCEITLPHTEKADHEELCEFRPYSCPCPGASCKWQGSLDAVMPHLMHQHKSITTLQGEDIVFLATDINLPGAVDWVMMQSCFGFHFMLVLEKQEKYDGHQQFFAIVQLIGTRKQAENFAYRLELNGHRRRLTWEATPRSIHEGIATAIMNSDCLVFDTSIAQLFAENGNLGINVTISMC
# B1: GST-tagged AXIN1 (353–436) (domain or fragment, human, UniProt O15169-1 353-436, looked up)
# chain: RREMQESVQVNGRVPLPHIPRTYRVPKEVRVEPQKFAEELIHRLEAVQRTREAEEKLEERLKRVRMEEEGEDGDPSSGPPGPCH
# Legend:
# human SIAH1-SBD (91–282) [1] = molecular target: T1, human SIAH1-SBD (91–282); test: pull-down
# human SIAH1-SBD (91–282) [2] = molecular target: T1, human SIAH1-SBD (91–282); test: ITC
Binder,binding result (human SIAH1-SBD (91–282) [1]),Kd (human SIAH1-SBD (91–282) [2]) [µM]
B1,binds,–
"YRVPKEVRVEPQKFAEELIH (peptide, UniProt O15169-1 375-394, looked up) [20-residue human AXIN1 peptide (residues 375–394)]",–,5.6
